Experimental data reported in patent publication US20180298357A1.

Assays:
[1] = target: DNA polymerase I (Sau) of Staphylococcus aureus (Staphylococcus aureus); assay: cell-based or functional assay
[2] = target: Sau-TBD, hybrid DNA polymerase prepared by inserting a thioredoxin binding domain (TBD) of bacteriophage T7 DNA polymerase into DNA polymerase I (Sau) of S. aureus; assay: cell-based or functional assay

## TrxA (thioredoxin of E. coli) (from UniProt P0AA25 2-109)
[1]
  Polymerization activities (units/mg protein), +TrxA (units/mg protein): 3100
[2]
  Average amplification length of primers (nt) [1/(1 - PI)], in the presence of TrxA: 74.1 nt
  Micro continuous synthetic capacities (PI), in the presence of TrxA: 0.987
  Polymerization activities (units/mg protein), +TrxA (units/mg protein): 2860
  fold improvement of average amplification length of the primer on addition of TrxA: > 20 fold
  fold improvement of polymerization activity on addition of TrxA: > 2 fold
